Where a chain is given by its changes, count along the chain named.

Assay [1] addresses T1, human DLL3 on cells (human, UniProt Q9NYJ7 27-618).
T1 construct: Endogenous on H1184 and SHP77; Cell line is named under assay; also called H1184; DLL3/H82
T1 sequence: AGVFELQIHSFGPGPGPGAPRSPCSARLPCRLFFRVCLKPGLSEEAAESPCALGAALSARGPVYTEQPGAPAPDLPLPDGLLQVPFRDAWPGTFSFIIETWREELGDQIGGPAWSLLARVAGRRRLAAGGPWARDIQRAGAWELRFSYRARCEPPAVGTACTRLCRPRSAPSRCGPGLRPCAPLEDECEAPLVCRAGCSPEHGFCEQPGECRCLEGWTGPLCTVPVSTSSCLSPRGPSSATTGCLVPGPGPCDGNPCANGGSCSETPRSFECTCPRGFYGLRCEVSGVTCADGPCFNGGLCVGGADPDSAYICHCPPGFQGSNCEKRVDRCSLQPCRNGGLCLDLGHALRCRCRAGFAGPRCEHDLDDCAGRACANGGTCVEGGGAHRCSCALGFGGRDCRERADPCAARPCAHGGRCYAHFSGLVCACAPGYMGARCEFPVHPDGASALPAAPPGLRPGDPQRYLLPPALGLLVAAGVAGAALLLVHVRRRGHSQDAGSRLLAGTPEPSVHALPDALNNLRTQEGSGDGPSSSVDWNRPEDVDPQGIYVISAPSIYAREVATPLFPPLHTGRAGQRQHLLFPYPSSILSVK
Briefly: flow cytometry, H1184 cells. On the procedure: (§1) The plates were centrifuged at 300 g for 5 min, and the supernatant was removed. Different concentrations of test antibodies were added at 100 μL/well. The plates were incubated in the dark in a refrigerator at 4° C. for 1 h. After 3 centrifugal washes at 300 g, working concentrations of APC anti-human IgG Fc (BioLegend, 410712) or PE F(ab′)2-goat anti-human IgG (invitrogen, H10104) were added. The plates were incubated in the dark in a refrigerator at 4° C. for 40 min. After 3 centrifugal washes at 300 g, the geometric mean fluorescence intensity was measured on an Invitrogen flow cytometer, and the EC50 values for the binding of the antibodies to DLL3-expressing cells were calculated.
In general terms: Flow cytometry measures light scatter and fluorescence of single cells or particles in a stream.

Assay [2] has as its target T2, human DLL3 (ACRO, DLL3-H52H4) (human, UniProt Q9NYJ7 27-492).
T2 construct: Bought
T2 sequence: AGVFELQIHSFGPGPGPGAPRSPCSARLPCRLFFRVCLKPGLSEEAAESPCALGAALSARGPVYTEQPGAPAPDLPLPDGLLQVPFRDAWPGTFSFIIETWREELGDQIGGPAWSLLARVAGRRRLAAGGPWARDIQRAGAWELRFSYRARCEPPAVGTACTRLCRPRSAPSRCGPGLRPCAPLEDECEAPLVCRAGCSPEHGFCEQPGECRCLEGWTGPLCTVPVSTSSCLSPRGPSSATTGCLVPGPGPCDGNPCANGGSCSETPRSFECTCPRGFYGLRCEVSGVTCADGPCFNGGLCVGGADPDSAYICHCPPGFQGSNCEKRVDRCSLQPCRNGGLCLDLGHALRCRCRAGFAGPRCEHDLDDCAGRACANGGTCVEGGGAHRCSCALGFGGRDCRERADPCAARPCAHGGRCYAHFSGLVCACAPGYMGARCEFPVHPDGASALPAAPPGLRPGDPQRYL
Briefly: SPR Biacore 8K, Ab captured on Protein A. In short, it runs like this: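 Antibodies captured on a Protein A chip for 18 s; DLL3 or CD3D&3E antigen flowed 180 s, then 600 s dissociation, with real-time detection. Regeneration used 10 mM glycine-HCl pH 1.5 between cycles. Kinetics were obtained by 1:1 model fitting.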
(Surface plasmon resonance follows binding to a sensor surface in real time, without labels.)

The target of assay [3] is T1, human DLL3 on cells. The assay can be described thus: flow cytometry, DLL3/H82 cells. On the procedure: as §1

B1: hu98L2H2 (antibody, human IgG1, kappa, V domains shown)
VH: EVQLVESGGGLVQPGGSLRLSCAASGFTFSDYGIHWVRQAPGKGLEWVAYISSGGYTIYYADTVKGRFTISRDNAKNSLYLQMNSLRAEDTAVYYCARGDYEDIFYTMDYWGQGTTVTVSS
VL: DIQMTQSPSSLSASVGDRVTITCRASRDITKFLNWYQQKPGKAVKLLIYYTSRLHSGVPSRFSGSGSGTDYTLTISSLQPEDFATYYCQQGNTLPWTFGGGTKVEIKR
As usually defined, the Kd is the equilibrium constant for the complex coming apart. Read a high Kd as a looser complex. In general, koff refers to the first-order rate constant of dissociation. One may read the kon as the second-order rate constant of association. B1 came in with an Emax in assay [1] of 2310. In assay [2], this molecule came in with a Kd of 0.55 nM, a koff of 0.000668 s⁻¹ and an association rate constant (kon) of 1.22e+06 M⁻¹ s⁻¹.

B2: hu98L3H2 (antibody, human IgG1, kappa, V domains shown)
VH: B1 VH
VL: B1 VL with K42G
B2 yielded an Emax in assay [1] of 2350. In assay [2], the affinity, expressed as Kd, was 0.464 nM; the koff turned out to be 0.000732 s⁻¹; the kon was found to be 1.58e+06 M⁻¹ s⁻¹.

B3: hu98L3H4 (antibody, human IgG1, kappa, V domains shown)
VH: B1 VH with I58S
VL: B1 VL with K42G
In turn, B3 yielded an Emax in assay [1] of 1600. In assay [2], this molecule had a Kd of 1.11 nM, an off-rate (koff) of 0.00151 s⁻¹ and an on-rate constant (kon) of 1.36e+06 M⁻¹ s⁻¹.

B4: hu98L3H1 (antibody, human IgG1, kappa, V domains shown)
VH: B1 VH with E102D
VL: B1 VL with K42G
For the molecule B4, the Emax in assay [1] amounted to 2440. In assay [2], this molecule came in with a Kd of 0.232 nM, an off-rate constant (koff) of 0.000372 s⁻¹ and a kon of 1.6e+06 M⁻¹ s⁻¹.

B5: hu98L3H5 (antibody, human IgG1, kappa, V domains shown)
VH: B1 VH with I34M, I58S
VL: B1 VL with K42G
B5: the Emax in assay [1] was found to be 1540. In assay [2], this molecule showed a dissociation constant (Kd) of 1.22 nM, a koff of 0.00173 s⁻¹ and a kon of 1.42e+06 M⁻¹ s⁻¹.

B6: hu98L1H1 (antibody, human IgG1, kappa, V domains shown)
VH: B1 VH with E102D
VL: B1 VL with V44P, Y71F
B6 registered an Emax in assay [1] of 2820. In assay [2], this molecule registered an equilibrium dissociation constant (Kd) of 1.1 nM, a dissociation rate constant (koff) of 0.00171 s⁻¹ and a kon of 1.55e+06 M⁻¹ s⁻¹.

B7: hu98L2H1 (antibody, human IgG1, kappa, V domains shown)
VH: B1 VH with E102D
VL: B1 VL
In the case of B7, the Emax in assay [1] is 2470. For the same molecule, in assay [2], binding was characterised by a dissociation constant (Kd) of 0.269 nM, the koff worked out at 0.000389 s⁻¹ and the on-rate constant (kon) stood at 1.45e+06 M⁻¹ s⁻¹.

B8: hu110L1H2 (antibody, human IgG1, kappa, V domains shown)
VH: EVQLVQSGAEVKKPGASVKVSCKTSGYTFTDYYMNWVRQAPGQSLEWMGIINPYNGGTSYTQKFKGRVTITVDKSASTAYMELSSLRSEDTAVYYCARHFYDSSYLTYSTMDYWGQGTTVTVSS
VL: DIVMTQSPDSLAVSLGERATINCKASENVGIFVSWYQQKPGQSPKLLIYGASNRYTGVPDRFSGSGSATDFTLTISSLQAEDVAVYYCGQSHSYPLTFGQGTKLEIKR
What is called EC50 is the concentration needed to bring the measured effect to its halfway point. In assay [3], B8 returned an EC50 of 1.31 nM and an Emax of 4700. Moreover, in assay [2], binding was characterised by a dissociation constant (Kd) of 0.0819 nM, the koff was 4.26e-05 s⁻¹ and the kon amounted to 520000 M⁻¹ s⁻¹.

B9: hu110L1H3 (antibody, human IgG1, kappa, V domains shown)
VH: B8 VH with N55Q
VL: B8 VL
In assay [3], B9 registered an EC50 of 1.15 nM and an Emax of 4560. In assay [2], this molecule returned a Kd of 0.0843 nM, a koff of 4.75e-05 s⁻¹ and a kon of 564000 M⁻¹ s⁻¹.

B10: hu110L1H1 (antibody, human IgG1, kappa, V domains shown)
VH: B8 VH with T24A, S44R
VL: B8 VL
In assay [3], B10 registered a half-maximal effective concentration (EC50) of 1.15 nM and an Emax of 4470. In assay [2], this molecule had a dissociation constant (Kd) of 0.068 nM, a koff of 4.17e-05 s⁻¹ and an on-rate constant (kon) of 614000 M⁻¹ s⁻¹.

B11: hu110L1H4 (antibody, human IgG1, kappa, V domains shown)
VH: B8 VH with N55S
VL: B8 VL
In assay [3], B11 displayed an EC50 of 1.51 nM and an Emax of 4580. Moreover, in assay [2], binding was characterised by a dissociation constant (Kd) of 0.0911 nM, the koff was determined as 4.8e-05 s⁻¹ and the association rate constant (kon) amounted to 527000 M⁻¹ s⁻¹.

B12: hu6L2H5 (antibody, human IgG1, kappa, V domains shown)
VH: EVQLVQSGSELKKPGASVKVSCKASGYTFTDYYMNWVRQAPGQGLEWMGIINPYSGVTIYNHKFKGRFVLSVDKSVSTAYLQISSLKAEDTAVYYCARQDSLLDYAMDYWGQGTTVTVSS
VL: DIQMTQSPSSLSASVGDRVTITCHASQGISGNMGWLQQKPGKAPKGLIYHGANLEDGVPSRFSGSGSGADYTLTISSLQPEDFATYYCVQYAQFPYTFGGGTKVEIKR
For the molecule B12, in assay [1], the midpoint of the response, the EC50, lay at 0.06 nM and the Emax turned out to be 2490. In assay [2], this molecule gave an equilibrium dissociation constant (Kd) of 0.969 nM, a koff of 0.000784 s⁻¹ and a kon of 810000 M⁻¹ s⁻¹.

B13: hu6L2H7 (antibody, human IgG1, kappa, V domains shown)
VH: EVQLVESGGGLVQPGGSLKLSCAASGYTFTDYYMNWVRQASGKGLEWVGIINPYSGVTIYNHKFKGRFTLSVDKSKNTAYLQMNSLKTEDTAVYYCARQDSLLDYAMDYWGQGTTVTVSS
VL: B12 VL
In assay [1], B13 gave an EC50 of 0.07 nM and an Emax of 2200. Further, in assay [2], binding was put at a Kd of 3.06 nM, the off-rate constant (koff) came to 0.00205 s⁻¹ and the association rate constant (kon) was determined as 670000 M⁻¹ s⁻¹.

B14: hu6L2H13 (antibody, human IgG1, kappa, V domains shown)
VH: B12 VH with R38K, V69A, V76S, S77N
VL: B12 VL
Consider B14, for which, in assay [1], a half-maximal response (EC50) required 0.1 nM and the Emax was determined as 2100. Also, in assay [2], the Kd is 0.382 nM, the koff was 0.000803 s⁻¹ and the on-rate (kon) came out at 2.1e+06 M⁻¹ s⁻¹.

B15: hu6L4H11 (antibody, human IgG1, kappa, V domains shown)
VH: B12 VH with R38K, V76S, S77N
VL: B12 VL with T85D
In assay [1], B15 returned an EC50 of 0.07 nM and an Emax of 2190. In assay [2], this molecule gave a Kd of 0.314 nM, a koff of 0.000672 s⁻¹ and a kon of 2.14e+06 M⁻¹ s⁻¹.

B16: hu6L4H12 (antibody, human IgG1, kappa, V domains shown)
VH: B12 VH with V69A, V76S, S77N
VL: B12 VL with T85D
Turning to B16, in assay [1], the EC50 worked out at 0.05 nM and the Emax was determined as 2130. In assay [2], the Kd amounted to 0.391 nM, the koff was 0.000805 s⁻¹ and the on-rate (kon) was found to be 2.06e+06 M⁻¹ s⁻¹.

B17: hu6L2H11 (antibody, human IgG1, kappa, V domains shown)
VH: B12 VH with R38K, V76S, S77N
VL: B12 VL
As for B17, in assay [1], the concentration giving a half-maximal response (EC50) was determined as 0.04 nM and the Emax was found to be 1960. Also, in assay [2], the Kd amounted to 0.363 nM, the koff is 0.000749 s⁻¹ and the association rate constant (kon) amounted to 2.06e+06 M⁻¹ s⁻¹.

B18: hu6L4H13 (antibody, human IgG1, kappa, V domains shown)
VH: B12 VH with R38K, V69A, V76S, S77N
VL: B12 VL with T85D
notes: also called hu6L4VH13
As for B18, in assay [1], the EC50 stood at 0.09 nM and the Emax was 2120. Moreover, in assay [2], binding was characterised by a dissociation constant (Kd) of 0.322 nM, the off-rate constant (koff) was determined as 0.000695 s⁻¹ and the on-rate (kon) was determined as 2.16e+06 M⁻¹ s⁻¹.
